According to PMC5402393, “Interactions of AMTN, ODAM and SCPPPQ1 proteins of a specialized basal lamina that attaches epithelial cells to tooth mineral” (Scientific Reports, 2017):

B1: recombinant human ODAM, purified, His-tag cleaved (natural protein, UniProt A1E959 16-279, looked up)
chain: APLIPQRLMSASNSNELLLNLNNGQLLPLQLQGPLNSWIPPFSGILQQQQQAQIPGLSQFSLSALDQFAGLLPNQIPLTGEASFAQGAQAGQVDPLQLQTPPQTQPGPSHVMPYVFSFKMPQEQGQMFQYYPVYMVLPWEQPQQTVPRSPQQTRQQQYEEQIPFYAQFGYIPQLAEPAISGGQQQLAFDPQLGTAPEIAVMSTGEEIPYLQKEAINFRHDSAGVFMPSTSPKPSTTNVFTSAVDQTITPELPEEKDKTDSLREP
notes: ~32 kDa; also called hODAM; source: E. coli BL21(DE3)-star, purified (Ni-NTA, TEV cleavage, Superose 6 gel filtration); not shown: His6, N-terminal, cleaved

How the values were obtained:
[1] = target: the molecule itself; test: SEC; Superose 6 GL 10/300 for ODAM, S200 for AMTN; 50 mM PB pH 7.4; purified recombinant human proteins, His-tag cleaved; self-association
[2] = target: B1; test: circular dichroism; far-UV CD (180-250 nm) of purified hODAM, hAMTN and their mixture in 50 mM PB pH 7.2; change of secondary structure on mixing; settings: both partners purified

binding result [2]	Binder	stoichiometry N [1] [subunits]
binds	recombinant human AMTN, purified, His-tag cleaved (natural protein, UniProt Q6UX39 17-209, looked up, ~21 kDa; also called hAMTN; source: E. coli BL21(DE3)-star, purified (Ni-NTA, TEV cleavage, S200 gel filtration); not shown: His6, N-terminal, cleaved) LPQLKPALGLPPTKLAPDQGTLPNQQQSNQVFPSLSLIPLTQMLTLGPDLHLLNPAAGMTPGTQTHPLTLGGLNVQQQLHPHVLPIFVTQLGAQGTILSSEELPQIFTSLIIHSLFPGGILPTSQAGANPDVQDGSLPAGGAGVNPATQGTPAGRLPTPSGTDDDFAVTTPAGIQRSTHAIEEATTESANGIQ	5
–	B1	12 to 13
